From paper PMC11088704, “Structural basis for the regulation of plant transcription factor WRKY33 by the VQ protein SIB1” (Communications Biology, 2024)
Blank lines part the entries; values can stand above or below the binder they belong to.

Experiments:
[1] = target: T1, WRKY33_C-I360D mutant protein (Arabidopsis thaliana, UniProt Q8S8P5 331-422, I360D); experiment: NMR titration; 2D 1H-15N HSQC of 15N-labeled WRKY33_C (or its mutants), 0.1 mM, with SIB1 or SIB1 peptides added at 2:1 (5:1 also for SIB1^40–60 and SIB1^55–69); 30 mM MES pH 6.0, 50 mM NaCl, 20 uM ZnSO4, 10% D2O, 25 °C; details: both partners purified
T1 construct: WRKY33, Arabidopsis, C-terminal DBD; source: E. coli BL21(DE3), purified (Ni-NTA, gel filtration Superdex-75)
T1 sequence (Q8S8P5 331-422 I360D): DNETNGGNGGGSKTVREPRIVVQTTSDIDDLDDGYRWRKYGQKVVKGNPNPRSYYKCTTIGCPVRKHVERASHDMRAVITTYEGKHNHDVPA

[2] = target: T2, WRKY33_C-I358D mutant protein (Arabidopsis thaliana, UniProt Q8S8P5 331-422, I358D); experiment: as above; details: both partners purified
T2 construct: WRKY33, Arabidopsis, C-terminal DBD; source: E. coli BL21(DE3), purified (Ni-NTA, gel filtration Superdex-75)
T2 sequence (Q8S8P5 331-422 I358D): as the sequence (Q8S8P5 331-422 I360D) above, with I28D, D30I counted along it

WRKY33_C R366C mutant = target: T3, WRKY33_C R366C mutant (Arabidopsis thaliana, UniProt Q8S8P5 331-422, R366C); experiment: NMR titration; 2D 1H-15N HSQC of 15N-labeled SIB1 free and in complex with unlabeled WRKY33_C or its mutants; 30 mM MES pH 6.0, 50 mM NaCl, 20 uM ZnSO4, 25 °C; details: both partners purified
T3 construct: WRKY33, Arabidopsis, C-terminal DBD; also called R336 (as printed once); source: E. coli, expressed and purified similarly to the wild-type protein
T3 sequence (Q8S8P5 331-422 R366C): as the sequence (Q8S8P5 331-422 I360D) above, with D30I, R36C counted along it

[3] = target: T4, spin-labeled WRKY33_C K376C (Arabidopsis thaliana, UniProt Q8S8P5 331-422, K376C, Cys376 labelled with N-[2-maleimidoethyl]ethylenediamine-N,N,N',N'-tetraacetic acid monoamide, chelating Mn^2+ (paramagnetic) or Ca^2+); experiment: as above; details: both partners purified
T4 construct: WRKY33, Arabidopsis, C-terminal DBD; also called K376C spin-labeled; Ca^2+-chelated WRKY33_C mutant; source: E. coli, purified as the wild type; labelled, then purified on a cation exchange column
T4 sequence (Q8S8P5 331-422 K376C): as the sequence (Q8S8P5 331-422 I360D) above, with D30I, K46C counted along it

[4] = target: T5, spin-labeled WRKY33_C R366C (Arabidopsis thaliana, UniProt Q8S8P5 331-422, R366C, Cys366 labelled with N-[2-maleimidoethyl]ethylenediamine-N,N,N',N'-tetraacetic acid monoamide, chelating Mn^2+ (paramagnetic) or Ca^2+); experiment: as above; details: both partners purified
T5 construct: WRKY33, Arabidopsis, C-terminal DBD; also called R366C spin-labeled; Ca^2+-chelated WRKY33_C mutant; source: E. coli, purified as the wild type; labelled, then purified on a cation exchange column
T5 sequence (Q8S8P5 331-422 R366C): as the sequence (Q8S8P5 331-422 I360D) above, with D30I, R36C counted along it

[5] = target: T6, spin-labeled WRKY33_C D357C (Arabidopsis thaliana, UniProt Q8S8P5 331-422, D357C, Cys357 labelled with N-[2-maleimidoethyl]ethylenediamine-N,N,N',N'-tetraacetic acid monoamide, chelating Mn^2+ (paramagnetic) or Ca^2+); experiment: as above; details: both partners purified
T6 construct: WRKY33, Arabidopsis, C-terminal DBD; also called D357C spin-labeled; Ca^2+-chelated WRKY33_C mutant; source: E. coli, purified as the wild type; labelled, then purified on a cation exchange column
T6 sequence (Q8S8P5 331-422 D357C): as the sequence (Q8S8P5 331-422 I360D) above, with D27C, D30I counted along it

WRKY33_C D357C mutant = target: T7, WRKY33_C D357C mutant (Arabidopsis thaliana, UniProt Q8S8P5 331-422, D357C); experiment: as above; details: both partners purified
T7 construct: WRKY33, Arabidopsis, C-terminal DBD; The mutant without the maleimide-EDTA tag; source: E. coli, expressed and purified similarly to the wild-type protein
T7 sequence (Q8S8P5 331-422 D357C): as the sequence (Q8S8P5 331-422 I360D) above, with D27C, D30I counted along it

WRKY33_C K376C mutant = target: T8, WRKY33_C K376C mutant (Arabidopsis thaliana, UniProt Q8S8P5 331-422, K376C); experiment: as above; details: both partners purified
T8 construct: WRKY33, Arabidopsis, C-terminal DBD; The mutant without the maleimide-EDTA tag; source: E. coli, expressed and purified similarly to the wild-type protein
T8 sequence (Q8S8P5 331-422 K376C): as the sequence (Q8S8P5 331-422 I360D) above, with D30I, K46C counted along it

[6] = target: T9, WRKY33 C-terminal DNA-binding domain (WRKY33_C) (Arabidopsis thaliana, UniProt Q8S8P5 331-422); experiment: cross-linking; EGS crosslinker, 30-fold molar excess; WRKY33_C and SIB1 each 90 uM; 20 mM HEPES pH 7.0, 50 mM NaCl; room temperature; Tricine-SDS-PAGE; details: both partners purified
T9 construct: it holds I350 and the truncation V352-A422 is derived from it; Zinc-finger domain; 20 uM ZnSO4 in the buffers; Construct limits may be read from PDB 8K31; also called WRKY33 cDBD; WK33; source: E. coli BL21(DE3), purified (Ni-NTA, gel filtration Superdex-75)
T9 sequence (Q8S8P5 331-422): as the sequence (Q8S8P5 331-422 I360D) above, with D30I counted along it

[7] = target: T9, WRKY33 C-terminal DNA-binding domain …; experiment: SEC; Superdex-75; Trx-SIB1 incubated with WRKY33_C before loading; protein standards for calibration; details: both partners purified
WRKY33_C I350A mutant = target: T10, WRKY33_C I350A mutant (Arabidopsis thaliana, UniProt Q8S8P5 331-422, I350A); experiment: NMR titration; 2D 1H-15N HSQC of 15N-labeled WRKY33_C (or its mutants), 0.1 mM, with SIB1 or SIB1 peptides added at 2:1 (5:1 also for SIB1^40–60 and SIB1^55–69); 30 mM MES pH 6.0, 50 mM NaCl, 20 uM ZnSO4, 10% D2O, 25 °C; details: both partners purified
T10 construct: WRKY33, Arabidopsis, C-terminal DBD; source: E. coli BL21(DE3), purified (Ni-NTA, gel filtration Superdex-75)
T10 sequence (Q8S8P5 331-422 I350A): as the sequence (Q8S8P5 331-422 I360D) above, with I20A, D30I counted along it

WRKY33_C V351A mutant = target: T11, WRKY33_C V351A mutant (Arabidopsis thaliana, UniProt Q8S8P5 331-422, V351A); experiment: as above; details: both partners purified
T11 construct: WRKY33, Arabidopsis, C-terminal DBD; source: E. coli BL21(DE3), purified (Ni-NTA, gel filtration Superdex-75)
T11 sequence (Q8S8P5 331-422 V351A): as the sequence (Q8S8P5 331-422 I360D) above, with V21A, D30I counted along it

WRKY33_C = WRKY33_C (Arabidopsis thaliana, UniProt Q8S8P5 345-422); experiment: EMSA; no SIB1; estimated from band intensity (an earlier response in the peer review file prints 150 uM, called sub-micromolar); EMSA: NMR buffer (composition not given in material) with 100 mM NaCl, 1.0 ng dsDNA in 20 ul, room temperature 20 min, SIB1:WRKY33_C 2:1; gel in 0.5x TBE, GelRed stain; details: protein: recombinant; tags: C-terminal 6xHis; blunt
Chain of WRKY33_C (Q8S8P5 345-422): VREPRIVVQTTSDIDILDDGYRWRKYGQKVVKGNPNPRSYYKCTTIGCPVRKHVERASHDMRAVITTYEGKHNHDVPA

binding result (WRKY33_C R366C mutant): binds | binding result [3]: binds | binding result [4]: binds | binding result [5]: binds | binding result (WRKY33_C D357C mutant): binds | binding result (WRKY33_C K376C mutant): binds | stoichiometry N [6]: 1
B2: SIB1^11-100 (T11-L100 segment of Arabidopsis sigma factor-binding protein SIB1) (domain or fragment, Arabidopsis thaliana, UniProt Q9LDH1 11-100, looked up)
chain: TTSLDKKKPSPVSRKSPKQKKKTTSTNKPIKVRYISNPMRVQTCASKFRELVQELTGQDAVDLQPEPIYSPSSDDHNLSPPAENLAPRVL
notes: SIB1 (VQ23), Arabidopsis, residues T11-L100; the N-terminal chloroplast targeting signal and the C-terminal 51 residues are deleted; Used unlabelled, 15N- or 13C/15N-labelled; also called VQ23; source: E. coli BL21(DE3), purified (Ni-NTA, gel filtration Superdex-75)

binding result (WRKY33_C I350A mutant): binds | binding result (WRKY33_C V351A mutant): binds
B4: SIB1^mini (SIB1^46–69 peptide, minimal SIB1 construct) (peptide, UniProt Q9LDH1 46-69, looked up)
peptide: SNPMRVQTCASKFRELVQELTGQD
notes: SIB1 (VQ23), Arabidopsis, residues 46-69: the VQ motif and its preceding segment; source: synthetic peptide

Second part, the binder before the results:

B1: SIB1^mini-V51R mutant peptide (peptide, UniProt Q9LDH1 46-69, looked up)
peptide: SNPMRRQTCASKFRELVQELTGQD
notes: SIB1 (VQ23), Arabidopsis, residues 46-69 with V51R
binding result [1]: binds | binding result [2]: binds

B3: Trx-SIB1 fusion protein (thioredoxin-fused SIB1) (domain or fragment, Arabidopsis thaliana, UniProt Q9LDH1 11-100, looked up)
chain: TTSLDKKKPSPVSRKSPKQKKKTTSTNKPIKVRYISNPMRVQTCASKFRELVQELTGQDAVDLQPEPIYSPSSDDHNLSPPAENLAPRVL
notes: SIB1 (VQ23), Arabidopsis; limits are not restated for the Trx fusion; The methods give 24 kDa for 'Trx'
stoichiometry N [7]: 1

B5: W-box DNA (dsDNA)
DNA 1: AAAGTTGACCAA
DNA 2: TTGGTCAACTTT
Kd (WRKY33_C): ~150 nM
